B1: Atto488-CHCHD4 (natural protein, human, UniProt Q8N4Q1 1-142, looked up)
chain: MSYCRQEGKDRIIFVTKEDHETPSSAELVADDPNDPYEEHGLILPNGNINWNCPCLGGMASGPCGEQFKSAFSCFHYSTEEIKGSDCVDQFRAMQECMQKYPDLYPQEDEDEEEEREKKPAEQAEETAPIEATATKEEEGSS
modifications: ATTO 488 (NHS ester) on the N-terminus
notes: not shown: GB1-6X-His, N-terminal, cleaved

Common to all, as to conditions: both partners purified
One assay deals with T1, AIF-W196A (human, UniProt O95831 78-613, W196A).
T1 construct: Apoptosis-inducing factor (AIF), human, allostery mutant lacking the inner mitochondrial membrane tether; limits read as those of the wild type, 78-613; source: E. coli Rosetta2(DE3), purified (Ni-NTA, PreScission cleavage, subtractive Ni-NTA, Superdex 200)
As to the kind of experiment: MST; AIF allostery mutants titrated (1.8 nM–30 µM) into 100 nM Atto488-CHCHD4 without NADH; 25 mM HEPES pH 7.5, 150 mM NaCl, 0.01% Tween-20, 5 mM TCEP; 25 °C.

A further assay deals with T2, AIF-R529A (human, UniProt O95831 78-613, R529A).
T2 construct: Apoptosis-inducing factor (AIF), human, allostery mutant lacking the inner mitochondrial membrane tether; limits read as those of the wild type, 78-613; source: E. coli Rosetta2(DE3), purified (Ni-NTA, PreScission cleavage, subtractive Ni-NTA, Superdex 200)
The assay is described as above.

The next assay addresses T3, AIF(78-613), wild type (human, UniProt O95831 78-613).
T3 construct: Apoptosis-inducing factor (AIF), human, residues 78-613, lacking the inner mitochondrial membrane tether; Construct from Brosey et al 2016; also called Apoptosis-inducing factor; AIF + NADH; source: E. coli Rosetta2(DE3), purified (Ni-NTA, PreScission cleavage, subtractive Ni-NTA, Superdex 200)
The experiment in a line: MST; wild-type AIF titrated (1.8 nM–30 µM) into 100 nM Atto488-CHCHD4 with 300 µM NADH; 25 mM HEPES pH 7.5, 150 mM NaCl, 0.01% Tween-20, 5 mM TCEP; 25 °C.

For the assay “Atto488-CHCHD4”, the target named is B1. The experiment in a line: MST; AIF allostery mutants titrated (1.8 nM–30 µM) into 100 nM Atto488-CHCHD4 without NADH; 25 mM HEPES pH 7.5, 150 mM NaCl, 0.01% Tween-20, 5 mM TCEP; 25 °C.

What is called Kd is a measure of binding affinity in units of concentration. High values mean weaker binding, low ones tighter binding. On to B1, for which the dissociation constant (Kd) with AIF-W196A came out at 2200 nM; with AIF-R529A, 2500 nM; in the assay with AIF(78-613), wild type, 340 nM.

B2: AIF-ΔC-loop (domain or fragment)
chain: VGAGAYAYKTMKEDEKRYNERISGLGLTPEQKQKKAALSASEGEEVPQDKAPSHVPFLLIGGGTAAFAAARSIRARDPGARVLIVSEDPELPYMRPPLSKELWFSDDPNVTKTLRFKQWNGKERSIYFQPPSFYVSAQDLPHIENGGVAVLTGKKVVQLDVRDNMVKLNDGSQITYEKCLIATGGTPRSLSAIDRAGAEVKSRTTLFRKIGDFRSLEKISREVKSITIIGGGFLGSELACALGRKARALGTEVIQLFPEKGNMGKILPEYLSNWTMEKVRREGVKVMPNAIVQSVGVSSGKLLIKLKDGRKVETDHIVAAVGLEPNVELAKTGGLEIDSDFGGFRVNAELQARSNIWVAGDAACFYDIKLGRRRVEHHDHAVVSGRLAGENMTGAAKPYWHQSMFWSDLGPDVGYEAIGLVDSSLPTVGVFYGKGVIFYLRDKVVVGIVLWNIFNRMPIARKIIKDGEQHEDLNEVAKLFNIHED
Molecule B2 gave a Kd with Atto488-CHCHD4 of 4000 nM.

These data come from publication PMC11832770, “NADH-bound AIF activates the mitochondrial CHCHD4/MIA40 chaperone by a substrate-mimicry mechanism” (The EMBO Journal, 2025).
